In the supplement of paper PMC11246515:
± gives the standard deviation of the averaged measurements.

Test: total protein half-life in vivo (active degradation + dilution); higher = more stable protein
[1] = E. coli NCM3722 delta-clpP delta-lon delta-hslV, growth: N-lim chemostat, doubling time 6 h
[2] = E. coli NCM3722 delta-clpP, growth: N-lim chemostat, doubling time 6 h
[3] = E. coli NCM3722 delta-hslV, growth: N-lim chemostat, doubling time 6 h
[4] = E. coli NCM3722 delta-lon, growth: N-lim chemostat, doubling time 6 h
[5] = E. coli NCM3722 delta-smpB, growth: N-lim chemostat, doubling time 6 h
[6] = wild type E. coli NCM3722, growth: C-lim chemostat, doubling time 3 h
[7] = wild type E. coli NCM3722, growth: C-lim chemostat, doubling time 6 h
[8] = wild type E. coli NCM3722, growth: C-lim chemostat, doubling time 12 h
[9] = wild type E. coli NCM3722, growth: N-lim chemostat, doubling time 6 h
[10] = wild type E. coli NCM3722, growth: N-lim chemostat, doubling time 12 h
[11] = wild type E. coli NCM3722, growth: P-lim chemostat, doubling time 6 h
[12] = wild type E. coli NCM3722, growth: P-lim chemostat, doubling time 12 h

Row | Sequence | total protein half-life in vivo [1] [h] | total protein half-life in vivo [2] [h] | total protein half-life in vivo [3] [h] | total protein half-life in vivo [4] [h] | total protein half-life in vivo [5] [h] | total protein half-life in vivo [6] [h] | total protein half-life in vivo [7] [h] | total protein half-life in vivo [8] [h] | total protein half-life in vivo [9] [h] | total protein half-life in vivo [10] [h] | total protein half-life in vivo [11] [h] | total protein half-life in vivo [12] [h]
1 | MTNITKRSLVAAGVLAALMAGNVALAADVPAGVTLAEKQTLVRNNGSEVQSLDPHKIEGVPESNISRDLFEGLLVSDLDGHPAPGVAESWDNKDAKVWTFHLRKDAKWSDGTPVTAQDFVYSWQRSVDPNTASPYASYLQYGHIAGIDEILEGKKPITDLGVKAIDDHTLEVTLSEPVPYFYKLLVHPSTSPVPKAAIEKFGEKWTQPGNIVTNGAYTLKDWVVNERIVLERSPTYWNNAKTVINQVTYLPIASEVTDVNRYRSGEIDMTNNSMPIELFQKLKKEIPDEVHVDPYLCTYYYEINNQKPPFNDVRVRTALKLGMDRDIIVNKVKAQGNMPAYGYTPPYTDGAKLTQPEWFGWSQEKRNEEAKKLLAEAGYTADKPLTINLLYNTSDLHKKLAIAASSLWKKNIGVNVKLVNQEWKTFLDTRHQGTFDVARAGWCADYNEPTSFLNTMLSNSSMNTAHYKSPAFDSIMAETLKVTDEAQRTALYTKAEQQLDKDSAIVPVYYYVNARLVKPWVGGYTGKDPLDNTYTRNMYIVKH | 5.05 ± 0.41 | 5.96 ± 0.98 | 6.62 ± 0.85 | 6.25 ± 0.66 | 6.01 ± 0.075 | 3.13 ± 0.1 | 6.215 ± 0.047 | 12.7 ± 1.9 | 6.22 ± 0.13 | 12 ± 0.33 | 6.03 ± 0.071 | 12.3 ± 0.35
2 | MTNNDTTLQLSSVLNRECTRSRVHCQSKKRALEIISELAAKQLSLPPQVVFEAILTREKMGSTGIGNGIAIPHGKLEEDTLRAVGVFVQLETPIAFDAIDNQPVDLLFALLVPADQTKTHLHTLSLVAKRLADKTICRRLRAAQSDEELYQIITDTEGTPDEA | 4.58 ± 0.29 | 3.48 ± 2.9 | 5.17 ± 0.097 | 5.82 | 3.01 ± 0.57 | 2.46 ± 0.65 | 5.18 ± 1.6 | 9.11 ± 5.2 | 3.79 | 5.69 ± 0.31 | 3.46 ± 1.9 | 8.38 ± 1.6
3 | MTNPLLTPFELPPFSKILPEHVVPAVTKALNDCRENVERVVAQGAPYTWENLCQPLAEVDDVLGRIFSPVSHLNSVKNSPELREAYEQTLPLLSEYSTWVGQHEGLYKAYRDLRDGDHYATLNTAQKKAVDNALRDFELSGIGLPKEKQQRYGEIATRLSELGNQYSNNVLDATMGWTKLVTDEAELAGMPESALAAAKAQAEAKELEGYLLTLDIPSYLPVMTYCDNQALREEMYRAYSTRASDQGPNAGKWDNSKVMEEILALRHELAQLLGFENYAFKSLATKMAENPQQVLDFLTDLAKRARPQGEKELAQLRAFAKAEFGVDELQPWDIAYYSEKQKQHLYSISDEQLRPYFPENKAVNGLFEVVKRIYGITAKERKDVDVWHPDVRFFELYDENNELRGSFYLDLYARENKRGGAWMDDCVGQMRKADGSLQKPVAYLTCNFNRPVNGKPALFTHDEVITLFHEFGHGLHHMLTRIETAGVSGISGVPWDAVELPSQFMENWCWEPEALAFISGHYETGEPLPKELLDKMLAAKNYQAALFILRQLEFGLFDFRLHAEFRPDQGAKILETLAEIKKLVAVVPSPSWGRFPHAFSHIFAGGYAAGYYSYLWADVLAADAFSRFEEEGIFNRETGQSFLDNILSRGGSEEPMDLFKRFRGREPQLDAMLEHYGIKG | 4.42 ± 0.21 | 4.18 ± 0.052 | 4.03 ± 0.15 | 3.74 ± 0.18 | 3.55 ± 0.062 | 2.795 ± 0.023 | 5.17 ± 0.21 | 8.7 ± 0.94 | 3.68 ± 0.23 | 5.67 ± 0.55 | 5.1797 ± 0.00065 | 9.96 ± 1.1
4 | MTNRISRLKTALFANTREISLERALLYTASHRQTEGEPVILRRAKATAYILEHVEISIRDEELIAGNRTVKPRAGIMSPEMDPYWLLKELDQFPTRPQDRFAISEEDKRIYREELFPYWEKRSMKDFINGQMTDEVKAATNTQIFSINQTDKGQGHIIIDYPRLLNHGLGELVAQMQQHCQQQPENHFYQAALLLLEASQKHILRYAELAETMAANCTDAQRREELLTIAEISRHNAQHKPQTFWQACQLFWYMNIILQYESNASSLSLGRFDQYMLPFYQTSLTQGEDAAFLKELLESLWVKCNDIVLLRSTSSARYFAGFPTGYTALLGGLTENGRSAVNVLSFLCLDAYQSVQLPQPNLGVRTNALIDTPFLMKTAETIRFGTGIPQIFNDEVVVPAFLNRGVSLEDARDYSVVGCVELSIPGRTYGLHDIAMFNLLKVMEICLHENEGNAALTYEGLLEQIRAKISHYITLMVEGSNICDIGHRDWAPVPLLSSFISDCLEKGRDITDGGARYNFSGVQGIGIANLSDSLHALKGMVFEQQRLSFDELLSVLKANFATPEGEKVRARLINRFEKYGNDIDEVDNISAELLRHYCKEVEKYQNPRGGYFTPGSYTVSAHVPLGSVVGATPDGRFAGEQLADGGLSPMLGQDAQGPTAVLKSVSKLDNTLLSNGTLLNVKFTPATLEGEAGLRKLADFLRAFTQLKLQHIQFNVVNADTLREAQQRPQDYAGLVVRVAGYSAFFVELSKEIQDDIIRRTAHQL | 5.49 ± 0.94 | 3.15 ± 0.29 |  |  |  |  |  |  |  |  |  | 
5 | MTNSNRIKLTWISFLSYALTGALVIVTGMVMGNIADYFNLPVSSMSNTFTFLNAGILISIFLNAWLMEIVPLKTQLRFGFLLMVLAVAGLMFSHSLALFSAAMFILGVVSGITMSIGTFLVTQMYEGRQRGSRLLFTDSFFSMAGMIFPMIAAFLLARSIEWYWVYACIGLVYVAIFILTFGCEFPALGKHAPKTDAPVEKEKWGIGVLFLSVAALCYILGQLGFISWVPEYAKGLGMSLNDAGTLVSNFWMSYMVGMWAFSFILRFFDLQRILTVLAGLAAILMYVFNTGTPAHMAWSILALGFFSSAIYTTIITLGSQQTKVPSPKLVNFVLTCGTIGTMLTFVVTGPIVEHSGPQAALLTANGLYAVVFVMCFLLGFVSRHRQHNTLTSH | 5.5 | 5.55 | 5.855 ± 0.027 | 5.47 ± 0.58 | 5.72 ± 0.19 |  |  |  | 6.5 ± 0.71 |  | 6.42 ± 1.5 | 13.3
